The supplement of paper PMC9170038

test system: MS2 coat protein; assay: apparent KD of MS2 coat protein; higher = weaker reporter binding; conditions: Eterna round: R107; input ligand: theophylline 2 mM
Protocol: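 RNA-MaP round R107: designed RNA switches with theophylline, tryptophan, arginine or FMN aptamers are transcribed on-chip within common flanks. They are titrated with SNAP-549-labelled MS2 coat protein in RNA-MaP buffer (100 mM Tris pH 7.5, 80 mM KCl, 4 mM MgCl2), without ligand or with the indicated ligand. Median apparent KD per design.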

Row | Sequence | apparent KD of MS2 coat protein
1 | UCUGUUUGCUUUGUUUGUUUCUUCUUUGAGCGAGGACCGGUACGGCCGCCACUCGGGUUACAUGAGGAUCACCCAUGUGGUUUCU [Interesting] | 0.149 µM
2 | GGGUGUGAUCCGGAUACCAGCGAACAUGAGGAUCACCCAUGUGACCUGAGAUCGGCUCUACGCCCUUGGCAGCCGCGGUCGCAGG [Same State Theophylline B GF13] | 0.0154 µM
3 | AUUGUCGUGUCGGCCGCCACUGUCAUGGUUUUCGUGGAAAACAUGAGGAUCACCCAUGUAAUUGACAGGACCGGGACAUGGCGGC [Ricegesoer] | 0.0094 µM
4 | ACAUGAGGAUCACCCAUGUCAUGAGGUUCACGAGGACCGGUACGGCCGCCACUCGACAUGAGGGUCACCCAUGUGAGGAACACCC [mamullun] | 0.579 µM
5 | UAAUGUGAGAGAAGGAGCGGAAGUCUCGUUACAACAUGAGGAUCACCCAUGUAACGUACAGUCCAGGUAGGUCGCUCUCGGGCGC [pqacmullin] | 0.0181 µM
6 | GCGACACUCACGGCCGCCACUGAUUAGCCCAGUAUGGAGCCCACACAUGAGGAUCACCCAUGUCACAGGACCGGGUGGGUCUAUU [theeternabot_sameState_MS2_Trp_B_23] | 0.0255 µM
7 | CAAAAUUACGGAAGGAGCGCGGGUAGGCGGGUUGGAUCACAUGAGGAUCACCCAUGUAAAUCGCAGGUAGGUCGCCGUAAACGCG [Eslagele] | 0.0769 µM
8 | ACAUGAGGAUCACCCAUGUAUCAACGGGAAGGAGCGCCAAACAAGGCAGGUAGGUCGCCCACAUGAGGAUCACCCAUGUGUUGGU [Exclusion Arginine A GF 29] | 0.0249 µM

same assay, conditions: Eterna round: R107; input ligand: tryptophan 2.4 mM

Row | Sequence | apparent KD of MS2 coat protein
9 | UAGUUGCUGACGGCCGCCACUAGAACAUGAGGAUCACCCAUGUAUUCUAGUGGACAUGGGUGGACUAGGACCGGGUCAGCAACAU [(Trp1)-(Ms2)-(T)'-(M)'-(Trp2)_Design9] | 0.0308 µM
10 | AAUAAUAAGGCGGCCGCCACUACACAUGAGGAUCACCCAUGUCUCGCGGGCUUGCGUUGGGAAAGUAGGACCGGGCCAAUAAUAA [Exclusion - Tryptophan B (Freestyle 9)] | 0.0157 µM
11 | GGUACAUGAGGAUCACCCAUGUAUGGGUACCGAGGACCGGUACGGCCGCCACUCGCAGGACAUGAGGAUCACCCAUGUGCAACCG [SSTA DOUBLE!!! :-D #11] | 0.312 µM
12 | UUUUUCAUAGGUUAUAGUUUAGAAACUGAAGGAGCGUGGUAAUACACAGGUAGGUCGCAGAUUUUACAUGAGGAUCACCCAUGUU [JR_ExcArginiA_Sub014] | 0.0256 µM
13 | ACAUGAGGAUCACCCAUGUGAAGGCACGAUACCAGCUGAUCCCGUGGCCCUUGGCAGCGUCCGGUGUGGUCCGGCGGGUGGGACG [bbvmullin] | 0.0244 µM
14 | CGGCCCUCACCUGAGGAUCACCCAGGUGAUACCAGCCUGGAAACAGGCCCUUGGCAGCACCAGGUCAUCAAAGAUGACCAAGCCG [TheoAX 23 #SwitchBubble] | 0.0109 µM
15 | GACCGAUUAUAGCGCGAUUGUCUUGUGGAAGGAGCGCAGAGGGCUGCAGGUAGGUCGCCACAUGAGGAUCACCCAUGUCAGGAUA [Ananvediri] | 0.0309 µM
16 | AACAACAAGGGAAGGAGCGCGAAUAAUAAACAUGAGGAUCACCCAUGUAUCAUGGGCUUAACGCAGGUAGGUCGCCCACAAACAA [Exclusion Arginine B GF1] | 0.0406 µM
17 | GAUUACAUGAGGAUCACCCAUGUAACUGAAGGAGCGGUGAUAAAGCCAGGUAGGUCGCAGAACGACAUGUGGUUCAUCCAUGUAA [#16 Exclusion - Arginine A] | 0.0303 µM
18 | AGACAUGAGGAUCACCCAUGUAGCACGGAUACCAGAUCCAGAUUUAUCCCUUGGCAGCUGUGGUACAGCGUUGCAACGCUCCUAG [Exclusion - Theophylline A (Freestyle 16)] | 0.0171 µM
19 | GAUAUAACAAAAGUUGUAUCAGUGGGUGAACGAGGACCGGUACGGCCGCCACUCGGACAUGAGGAUCACCCAUGUCCAUGUGAAA [AstrosExyTryA#18] | 0.0443 µM
20 | UGUAUGUGAUUUGAUACCAGACCAGCUGGUGUUAUAUGAGGAUCACCCAUAUAGGUUUGGGUCCCUUGGCAGCAAAUCGCAUACU [SS Theo B #24 Ms14] | 0.0325 µM
21 | CUCUGAGUCCGAAAGGACUCAGAGGCGGAUACCAGCGAGGUCCAUCGCCCUUGGCAGCCGAACAUGAGGAUCACCCAUGUCGGUA [#1 Same State - Theophylline A Attempt #28 (HarryS)] | 0.0112 µM
22 | UUGUUGUUUGGAAGGAGCGUGUAAGAUUAAGAACAUGAGGAUCACCCAUGUUUUAAGGGAACACAGGUAGGUCGCCGGGUGGUGG [11.R] | 0.0156 µM
23 | GCCUAGCAUCGAAGGAGCGGGCAUUACGCGCGAAAGCGCGAUACUUGAGGAACACCCAAGUCCCAGGUAGGUCGCGAUGCUAGGC [SSAB Alternative Aptamer #3 NP+V+V2] | 0.0835 µM
24 | UGUAUGUGAUUUGAUACCAGACCAGCUGGUGGUGCAUGAGGAACACCCAUGCAGGUUUGGGUCCCUUGGCAGCAAAUCGCAUACU [SS Theo B #24 Ms19] | 0.13 µM
25 | UUCAGCUAGUCGGCCGCCACUACCUGAGGAUCACCCUGGUAAUCCUAACACUGCUUCGGCAGUGGUAGGACCGGGACUAGCUGAG | 0.225 µM
26 | CUAUAAUGAAAACAUUAUAGAGUGGGUGAACGAGGACCGGUACGGCCGCCACUCGGACAUGAGGAUCACCCAUGUCCAUGUGAAA [AstrosExyTryA#24] | 0.0319 µM
27 | UUAAUGGAGCUUUAAUUUACGAUUUCUGAUACCAGUGUUUCAUUUCACCCUUGGCAGCAGUGACAUGAGGAUCACCCAUGUAAUA [JR_Nu_SSTheophyA_Sub022] | 0.0264 µM
28 | GGGUGUGAUCCGGAUACCAGCGAACAUGAGGAUCACCCAUGUGACCUGAGAUCGGCUCUACGCCCUUGGCAGCCGCGGUCGCAGG [Same State Theophylline B GF13] | 0.0124 µM
29 | GAUAGUUGAAGGGAUACCAGCCUGGACAUGAGGAUCACCCAUGUAGCGUGUUUGAAACUGGGCCCUUGGCAGCCCAUAUUGUGUA [Same State - Theophylline B / A] | 0.0152 µM
30 | UAAUGUGAGAGAAGGAGCGGAAGUCUCGUUACAACAUGAGGAUCACCCAUGUAACGUACAGUCCAGGUAGGUCGCUCUCGGGCGC [pqacmullin] | 0.0155 µM
31 | CAAAAUUACGGAAGGAGCGCGGGUAGGCGGGUUGGAUCACAUGAGGAUCACCCAUGUAAAUCGCAGGUAGGUCGCCGUAAACGCG [Eslagele] | 0.036 µM
32 | ACAUGAGGAUCACCCAUGUAUCAACGGGAAGGAGCGCCAAACAAGGCAGGUAGGUCGCCCACAUGAGGAUCACCCAUGUGUUGGU [Exclusion Arginine A GF 29] | 0.0211 µM
